Results taken from patent US8591913B2, “Methods of decreasing adipose tissue” (Toru Miyazaki, priority 2009, dated 2013).
“Also recorded” adds a separate entry of the source.

B1: AIM: apoptosis inhibitor of macrophage, secretory protein with three SRCR domains; recombinant mouse and human AIM in Example 2, mouse AIM in Examples 3-16 (protein)
chain: ESPTKVQLVGGAHRCEGRVEVEHNGQWGTVCDDGWDRRDVAVVCRELNCGAVIQTPRGASYQPPASEQRVLIQGVDCNGTEDTLAQCELNYYVFDCSHEEDAGAQCENPDSDLLFIPEDVRLVDGPGHCQGRVEVLHQSQWSTVCKAGWNLQVSKVVCRQLGCGRALLTYGSCNKNTQGKGPIWMGKMSCSGQEANLRSCLLSRLENNCTHGEDTWMECEDPFELKLVGGDTPCSGRLEVLHKGSWGSVCDDNWGEKEDQVVCKQLGCGKSLHPSPKTRKIYGPGAGRIWLDDVNCSGKEQSLEFCRHRLWGYHDCTHKEDVEVICTDFDV
B2: mouse AIM: protein consisting of the amino acid sequence shown in SEQ ID NO: 5; recombinant, purified from HEK293T culture supernatant (protein)
chain: MAPLFNLMLAILSIFVGSCFSESPTKVQLVGGAHRCEGRVEVEHNGQWGTVCDDGWDRRDVAVVCRELNCGAVIQTPRGASYQPPASEQRVLIQGVDCNGTEDTLAQCELNYYVFDCSHEEDAGAQCENPDSDLLFIPEDVRLVDGPGHCQGRVEVLHQSQWSTVCKAGWNLQVSKVVCRQLGCGRALLTYGSCNKNTQGKGPIWMGKMSCSGQEANLRSCLLSRLENNCTHGEDTWMECEDPFELKLVGGDTPCSGRLEVLHKGSWGSVCDDNWGEKEDQVVCKQLGCGKSLHPSPKTRKIYGPGAGRIWLDDVNCSGKEQSLEFCRHRLWGYHDCTHKEDVEVICTDFDV
modifications: mouse
notes: recombinant, purified from HEK293T culture supernatant

Assays:
[1] = target: T1, mouse CD36 (Mus musculus, UniProt Q08857); assay: Binding of AIM to CD36-overexpressing HEK293 cells (confocal microscopy); conditions: HEK293 cells overexpressing FLAG-tagged mouse CD36, cultured with mouse AIM for 3 hours
T1 construct: expressed in transfected cells; host or cells: HEK293 (called HEK293T)
Description: CD36 is a twice-transmembrane-type molecule, is expressed on adipocytes and macrophages, and is involved in intracellular internalization of many molecules including fatty acids, LDL, and the like. Thus, HEK293 cells in which mouse CD36 fused with a FLAG-tag at its C terminus was overexpressed were produced, and the cells were cultured with mouse AIM for 3 hours. Subsequently, the cells were collected, stained using an anti-AIM antibody and an anti-CD36 antibody, and observed under a confocal microscope.

[2] = Stability of AIM functions (drying and redissolution, acidic condition); format: physicochemical
[3] = system: 3T3-L1 preadipocytes; assay: Differentiation of 3T3-L1 preadipocytes into mature adipocytes, oil-red-o staining; format: cell-based, mouse
Description: In order to examine how AIM produced by the macrophages infiltrating the adipose tissues works on surrounding adipocytes, an experiment in which AIM was loaded during a culture process of differentiating 3T3-L1 preadipocytes into the mature adipocytes was performed.
A recombinant mouse AIM protein and a recombinant human AIM protein were used as AIM. Those recombinant AIM proteins were prepared by culturing human-derived HEK293T cells transfected with a vector expressing mouse AIM or human AIM and isolating and purifying the protein from its culture supernatant. The same recombinant AIM proteins were also used as AIM in other examples shown below. AIM was loaded by adding AIM at a concentration of 5 μg/mL to the culture medium.
Differentiation induction (Induction) of the 3T3-L1 cells was initiated by first culturing the 3T3-L1 cells for 4 days (day −2 to day 2) to proliferate the cells (Cell proliferation) and subsequently culturing the cells in a culture medium containing insulin, dexamethasone (DEX), and isobutylmethylxanthine (IBMX) for 2 days (day 2 to day 4). The differentiation induction was further continued by culturing the cells in a culture medium containing insulin for 2 days (day 4 to day 6).
After the period of the differentiation induction (day 2 to day 6), the culture was continued in a culture medium not containing those differentiation-inducing factors. Then, the cells on the 10th day (day 12) after the initiation of the stimuli for differentiation induction were stained with oil-red-o, and the differentiation of the 3T3-L1 cells to mature adipocytes was observed.
In addition, using a FAS inhibitor (C75) in place of AIM, the FAS inhibitor at a concentration of 25 μM was loaded according to the schedules (d) and (f), and as was the case with the above-mentioned AIM, the cells were collected on the 2nd day (day 4: schedule (d)) and 10th day (day 12: schedule (f)) after the initiation of the differentiation induction, and the enzyme activity of FAS was measured.
FIG. 12A and FIG. 12B show the results of staining the cells with oil-red-o and analyzing the gene expression by RT-PCR on the 2nd day (day 4) after the initiation of the differentiation induction in the case of loading no AIM according to the schedule (a) (None), the case of loading AIM according to the schedule (d) (AIM (5 μg/mL)), and the case of loading the FAS inhibitor according to the schedule (d) (C75 (25 μM)), respectively.

[4] = system: AIM-/- macrophages; conditions: AIM-/- macrophages loaded with recombinant AIM molecules; Document 1; cited from earlier work
[5] = system: mature adipocytes (differentiated 3T3-L1 cells); assay: Induction of lipolysis in mature 3T3-L1 adipocytes (lipid droplets, glycerol and free fatty acid efflux); format: cell-based, mouse
Description: The effect of AIM on mature adipocytes was examined.
Then, the cells on the 10th day (day 12) after the initiation of the stimuli for differentiation induction were stained with oil-red-o. The number of cells having lipid droplets was counted. Further, the diameter of lipid droplets was measured in the cells having lipid droplets. For comparison, the number of the cells was counted and the diameter of lipid droplets was measured for the cells cultured in the above-mentioned schedules (a) and (d).
Further, the supernatant of the culture medium after the cells were cultured while loading AIM according to the schedule (e) was collected, and amounts of glycerol and free fatty acid (FFA) contained in the supernatant were measured by ELISA. For the comparison, the amounts of glycerol and free fatty acid in the culture supernatant obtained according to the schedule (a) were also measured.
In order to avoid adsorption of free fatty acid to albumin contained in the culture medium, the culture medium supplemented with 10% FBS (fetal bovine serum) was exchanged to a serum-free culture medium on the 10th day (day 12) after the initiation of the differentiation induction, further the cells were cultured in the serum-free culture medium for 6 hours, and subsequently the amounts of glycerol and free fatty acid contained in the supernatant of the serum-free culture medium were measured.
FIG. 7A and FIG. 7B illustrate the evaluation results of the number (per 10^4 μm^2) of cells having lipid droplets (Droplet (+) cells) and the relative diameter of lipid droplets (%) obtained according to the schedules (a), (d), and (e) (Exp. a, d, and e), respectively. The relative diameter of lipid droplets illustrated in FIG. 7B was calculated by defining the diameter of lipid droplets in the cells obtained according to the schedule (a) without AIM loading as 100%. FIG. 8A and FIG. 8B illustrate the concentration of glycerol (Glycerol Efflux, mM) and the concentration of free fatty acid (FFA Efflux, ×10 mM) in the culture medium obtained according to the schedules (a) and (e) (Exp. a and e), respectively.
In addition, FIG. 13A and FIG. 13B illustrate the results of measuring the glycerol concentration (glycerol efflux, mM) and the free fatty acid concentration (FFA efflux, ×10 mM) in the culture medium on the 10th day (day 12) after the initiation of the differentiation induction in the case of loading no AIM according to the schedule (a) (None), the case of loading AIM according to the schedule (f) (AIM), and the case of loading the FAS inhibitor according to the schedule (f) (C75), respectively.

[6] = target: T2, endogenous FAS (Mus musculus, UniProt P19096); assay: Co-precipitation of endocytosed HA-tagged rAIM with endogenous FAS from adipose tissue lysates; format: binding; conditions: HA-tagged rAIM injected into AIM-/- mice, adipose tissue lysate, anti-HA antibody, Western blotting for FAS
T2 construct: from tissue; host or cells: epididymal adipose tissue of obese AIM-/- mice
Description: Further, the endocytosed rAIM was precipitated using lysates derived from those adipose tissues to examine whether endogenous FAS was co-precipitated or not. That is, the presence of FAS in the precipitate was analyzed by Western blotting using HA-tagged rAIM and an anti-HA antibody.
It was confirmed that AIM was bound to FAS both in vivo and in vitro. That is, mouse rAIM tagged with HA in a total amount of 100 μg was directly injected in several sites in the epididymal adipose tissue in the obese AIM^−/− mouse. At 3 hours after the injection, the epididymal adipose tissues were collected. Then, endocytosed rAIM was precipitated from a lysate of the adipose tissues using an anti-HA antibody. Then, it was analyzed by immunoblotting (WB) whether FAS was present in the resulting precipitate.

[7] = mouse AIM, schedule (e), compared with schedule (a)

T2 sequence (P19096 whole entry): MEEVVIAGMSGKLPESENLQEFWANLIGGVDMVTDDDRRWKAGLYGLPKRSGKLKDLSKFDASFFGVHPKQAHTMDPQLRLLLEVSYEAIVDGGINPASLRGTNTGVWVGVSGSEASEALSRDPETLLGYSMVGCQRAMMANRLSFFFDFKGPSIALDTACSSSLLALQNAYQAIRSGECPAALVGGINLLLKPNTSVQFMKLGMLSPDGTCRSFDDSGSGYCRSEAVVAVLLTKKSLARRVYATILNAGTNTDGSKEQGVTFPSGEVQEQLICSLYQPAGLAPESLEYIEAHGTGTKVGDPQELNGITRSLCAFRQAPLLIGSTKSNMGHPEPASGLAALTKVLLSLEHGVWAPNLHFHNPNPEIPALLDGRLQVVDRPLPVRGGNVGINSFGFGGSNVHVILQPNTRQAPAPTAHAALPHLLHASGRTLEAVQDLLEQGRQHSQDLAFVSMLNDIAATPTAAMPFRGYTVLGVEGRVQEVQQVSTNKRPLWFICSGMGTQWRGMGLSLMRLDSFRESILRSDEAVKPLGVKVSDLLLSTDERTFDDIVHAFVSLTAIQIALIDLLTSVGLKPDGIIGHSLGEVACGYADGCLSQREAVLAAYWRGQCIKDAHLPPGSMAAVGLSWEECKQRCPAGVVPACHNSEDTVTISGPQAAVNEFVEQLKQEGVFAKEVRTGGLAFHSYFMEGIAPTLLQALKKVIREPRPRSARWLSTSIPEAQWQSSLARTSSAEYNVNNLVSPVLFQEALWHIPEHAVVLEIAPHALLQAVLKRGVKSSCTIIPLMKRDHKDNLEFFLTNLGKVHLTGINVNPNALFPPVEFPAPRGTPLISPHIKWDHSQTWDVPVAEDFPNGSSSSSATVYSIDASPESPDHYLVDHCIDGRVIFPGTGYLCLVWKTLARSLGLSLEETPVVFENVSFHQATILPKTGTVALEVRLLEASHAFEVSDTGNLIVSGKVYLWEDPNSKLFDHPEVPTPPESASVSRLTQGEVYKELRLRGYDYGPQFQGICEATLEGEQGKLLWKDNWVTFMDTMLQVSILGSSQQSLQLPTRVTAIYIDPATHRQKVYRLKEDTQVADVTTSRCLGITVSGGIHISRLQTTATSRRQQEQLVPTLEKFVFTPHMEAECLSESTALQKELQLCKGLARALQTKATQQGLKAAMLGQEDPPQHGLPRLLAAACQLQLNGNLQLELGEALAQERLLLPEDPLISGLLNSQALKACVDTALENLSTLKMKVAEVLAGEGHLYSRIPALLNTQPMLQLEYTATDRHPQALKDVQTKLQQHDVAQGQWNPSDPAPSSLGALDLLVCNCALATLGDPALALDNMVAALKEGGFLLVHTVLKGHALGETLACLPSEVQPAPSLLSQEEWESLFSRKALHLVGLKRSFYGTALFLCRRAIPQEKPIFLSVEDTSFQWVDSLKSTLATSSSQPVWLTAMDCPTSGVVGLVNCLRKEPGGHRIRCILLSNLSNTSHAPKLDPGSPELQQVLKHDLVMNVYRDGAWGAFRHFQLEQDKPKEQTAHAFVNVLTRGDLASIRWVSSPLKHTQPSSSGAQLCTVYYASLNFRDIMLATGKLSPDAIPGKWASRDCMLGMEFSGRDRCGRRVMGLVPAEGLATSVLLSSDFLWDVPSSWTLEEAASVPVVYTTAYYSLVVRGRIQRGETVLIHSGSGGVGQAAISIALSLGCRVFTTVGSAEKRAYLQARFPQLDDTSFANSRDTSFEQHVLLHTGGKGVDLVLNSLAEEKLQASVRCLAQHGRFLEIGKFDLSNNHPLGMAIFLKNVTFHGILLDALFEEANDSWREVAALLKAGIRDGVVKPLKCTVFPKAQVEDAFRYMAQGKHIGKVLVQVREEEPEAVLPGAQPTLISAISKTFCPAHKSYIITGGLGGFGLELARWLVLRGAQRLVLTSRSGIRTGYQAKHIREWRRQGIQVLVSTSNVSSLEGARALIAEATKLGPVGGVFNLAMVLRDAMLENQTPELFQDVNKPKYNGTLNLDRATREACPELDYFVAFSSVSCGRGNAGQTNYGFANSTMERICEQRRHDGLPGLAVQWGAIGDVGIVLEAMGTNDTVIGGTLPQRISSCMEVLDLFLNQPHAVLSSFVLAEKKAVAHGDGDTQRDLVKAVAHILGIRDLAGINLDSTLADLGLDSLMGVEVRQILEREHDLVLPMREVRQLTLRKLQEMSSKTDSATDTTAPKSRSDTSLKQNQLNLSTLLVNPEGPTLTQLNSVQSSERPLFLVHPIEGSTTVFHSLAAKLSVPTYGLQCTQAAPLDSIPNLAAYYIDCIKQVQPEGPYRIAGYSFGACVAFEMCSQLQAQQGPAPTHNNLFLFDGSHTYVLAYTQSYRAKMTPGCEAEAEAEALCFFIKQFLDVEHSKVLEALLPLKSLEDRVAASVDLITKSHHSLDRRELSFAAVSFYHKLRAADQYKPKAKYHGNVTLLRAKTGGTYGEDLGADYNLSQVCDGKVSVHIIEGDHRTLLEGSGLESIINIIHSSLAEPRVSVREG
T1 sequence (Q08857 whole entry): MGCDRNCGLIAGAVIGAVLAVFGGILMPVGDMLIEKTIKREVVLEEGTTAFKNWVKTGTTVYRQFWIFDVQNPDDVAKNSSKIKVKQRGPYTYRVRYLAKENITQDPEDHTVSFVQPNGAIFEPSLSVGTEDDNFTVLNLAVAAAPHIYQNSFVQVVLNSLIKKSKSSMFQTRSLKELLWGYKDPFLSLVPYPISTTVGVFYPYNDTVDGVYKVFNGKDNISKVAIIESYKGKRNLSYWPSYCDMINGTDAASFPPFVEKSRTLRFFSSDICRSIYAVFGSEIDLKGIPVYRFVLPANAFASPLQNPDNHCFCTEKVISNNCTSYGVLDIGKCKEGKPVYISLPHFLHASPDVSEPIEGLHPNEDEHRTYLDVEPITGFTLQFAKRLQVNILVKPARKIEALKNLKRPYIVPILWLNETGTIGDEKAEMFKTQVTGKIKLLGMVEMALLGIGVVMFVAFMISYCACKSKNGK

| Molecule | binding of AIM to sites at which CD36 was expressed on the cells [1] | functions of AIM after drying and redissolution ([2]; drying such as lyophilization, redissolution) | functions of AIM under an acidic condition ([2]; pH of about 2 to 3) | increase of the number of dead cells due to the loading of AIM ([3]; 3T3-L1 cells loaded with AIM) | differentiation of the 3T3-L1 cells to the mature adipocytes ([3]; AIM continuously loaded day -2 to day 12, data not shown) | differentiation of the 3T3-L1 cells ([3]; mouse or human rAIM 5 μg/mL, schedule (b): day 2 to day 12, stained day 12) | differentiation of the 3T3-L1 cell ([3]; mouse or human rAIM 5 μg/mL, schedule (d): early phase of differentiation induction only (day 2 to day 4), stained day 12) | differentiation of the 3T3-L1 cells to the mature adipocytes ([3]; schedule (c): AIM only before differentiation induction (day -2 to day 2)) | resistance to the apoptosis [4] | concentration of free fatty acid in the culture supernatant [5, 7] | concentration of glycerol in the culture supernatant [5, 7] | diameter of lipid droplets contained in adipocytes, relative to schedule (a) ([5]; mouse AIM, schedule (e): day 6 to day 12, schedule (a) without AIM defined as 100%) | number of the cells having lipid droplets ([5]; mouse AIM, schedule (e): day 6 to day 12 after differentiation, compared with schedule (a) without AIM) | co-precipitation of endocytosed rAIM and endogenous FAS [6] | differentiation of 3T3-L1 cells derived from mice / differentiation inhibitory function ([3]; mouse AIM and human AIM compared, in vitro) | lipolysis induction function in adipocytes derived from mice ([5]; mouse AIM and human AIM compared, same range of concentrations in vitro) |
| --- | --- | --- | --- | --- | --- | --- | --- | --- | --- | --- | --- | --- | --- | --- | --- | --- |
| B1 | had been bound to sites | not lost | does not lose its functions | not observed | completely inhibited | almost completely inhibited | almost completely inhibited | not inhibited | enhanced | remarkably increased | remarkably increased | about 25% | remarkably decreased |  |  |  |
| B2 |  |  |  |  |  |  |  |  |  |  |  |  |  | co-precipitated | inhibited; also recorded: similarly exerted | similarly exerted |
